Experiments:
[1] = biological target: T1, HER2 on SK-BR-3 cells (human, UniProt P04626 23-1255); assay: cell binding to SK-BR-3, high content imaging (Example 4)
T1 construct: whole, on cells

[2] = biological target: T2, Recombinant Human ErbB2/HER2 Fc Chimera; R&D Systems; Cat. No. 1129-ER (human, UniProt P04626 23-652); assay: HER2 biochemical ELISA, coated HER2 Fc chimera (Example 3)
T2 construct: Bought reagent; also called human Her2; HER2-HIS-tag; not shown: not described

[3] = biological target: FcγRIIIa receptor, V158 (human, UniProt P08637 17-254); assay: cell-based or functional assay
FcγRIIIa receptor, V158, sequence (P08637 17-254 F176V): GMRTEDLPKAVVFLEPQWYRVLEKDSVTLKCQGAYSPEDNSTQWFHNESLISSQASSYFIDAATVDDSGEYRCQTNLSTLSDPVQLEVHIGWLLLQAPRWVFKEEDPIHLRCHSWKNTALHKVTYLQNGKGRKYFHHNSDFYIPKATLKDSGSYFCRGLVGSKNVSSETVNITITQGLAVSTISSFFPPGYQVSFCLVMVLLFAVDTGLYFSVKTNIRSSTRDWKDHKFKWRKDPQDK

B1: MABD B100 (antibody)
heavy: not shown
light: DIVMTQTPASVSEPVGGTVTIKCQASQGISTALAWYQQKPGQRPKLLIYSASTLASGVSSRFKGSGSGTQFTLTISDLECADAATYYCQCTAAGSVSVGAFGGGTEVVVNRTVAAPSVFIFPPSDEQLKSGTASVVCLLNNFYPREAKVQWKVDNALQSGNSQESVTEQDSKDSTYSLSSTLTLSKADYEKHKVYACEVTHQGLSSPVTKSFNRGEC
- EC50 [1]: 0.078 mg/L
- EC50 [2]: 0.0052 mg/L
- EC50 of FcR signaling [3]: 0.052 mg/L
- stimulation of FcR signaling [3]: 132 fold
